Assay [1] relates to c-Src. Briefly: Western blot of c-Src autophosphorylation. The format is cell-based, human. The note with it: CL1-5; 0 to 60 minutes; FIG. 3E. On the procedure: (§1) Proteins ([…]) were separated by SDS-PAGE and transferred to a polyvinylidene difluoride membrane (Immobilon-P membrane; Millipore) by electrotransfer. The blot was blocked in a solution of 5% skim milk and 0.1% Tween 20 in PBS. Thereafter, membrane-bound proteins were probed with the following primary antibodies: CCN2, DAPK, phosphorylated ERK, ERK-1, phosphorylated Akt, Akt, TrkA, phosphorylated-Src, Src, b-actin, a-tubulin (Santa Cruz Biotechnology), p-EGFR, and EGFR (Cell Signaling Technology, Danvers, MA, USA). The membrane was washed and then incubated with HRP-conjugated secondary antibodies for 30 min. Enhanced chemiluminescence reagents (Amersham Pharmacia Biotech, Piscataway, N.J., USA) were employed to depict the protein bands on membranes. The light was captured on Kodak X-Omat Blue autoradiography film (PerkinElmer Life Sciences, Boston, Mass., USA).
Next, the effect of CCN2 on the formation of EGFR/Src complex and the phosphorylation of Src in the lung adenocarcinoma cell lines, CL1-5, A549 and CL1-0/siCCN2, was observed by western blot analysis, the results shown in FIGS. 3C to 3E.
For orientation: Immunoblotting shows a protein as a band on a membrane.

Assay [2] concerns lung adenocarcinoma cell line, CL1-0/siCCN2. Briefly: Anoikis assay with DAPK siRNA. Type of assay: cell-based, human. The note with it: CL1-0/siCCN2 in suspension, DAPK expression decreased due to siRNA; 24 h; FIG. 6C.
Assay [3] deals with T1, EGFR/c-Cbl complex (Homo sapiens, UniProt P00533).
T1 construct: expressed in transfected cells; host or cells: CL1-5 (EGFR endogenous; HA-c-Cbl transiently transfected)
Briefly: Immunoprecipitation/western blot of EGFR/c-Cbl complex formation. The format is cell-based. The note with it: CL1-5 with MG132; 0 to 60 minutes; FIG. 4D. On the procedure: as §1
CCN2 transfectants were seeded overnight and incubated in serum-free media for 24 h. For immunoprecipitations, cells were lysed in an RIPA buffer (150 mM NaCl, 50 mM Tris-base, 5 mM EDTA, 1% NP-40, and 0.25% deoxycholate; pH 7.4). Protein concentrations were determined using the BCA protein assay kit (Pierce, Rockford, Ill., USA). […]

Assay [4] relates to DAPK. The assay is described as follows: Western blot of DAPK expression. The format is cell-based, human. On the procedure:
as §1
This embodiment focuses on the downstream signaling in CCN2-induced anoikis. At first, the effect of DAPK which can up-regulate CCN2 played on CCN2 induced anoikis and metastasis inhibition of lung adenocarcinoma cell lineswas observed by RT-PCR, dual luciferase reporter assay and western blot analysis, the results shown in FIGS. 6A to 6C. […] In addition, in the lung adenocarcinoma cell line, CL1-0/siCCN2, DAPK expression is suppressed, and DAPK expression also be suppressed with increasing dose (0 μg, 1μg, 3μg), (as shown on the top right in the FIG. 6C). Therefore, CCN2 induced DAPK expression in time- and dose-dependent manners.

For assay [5], the system named is ERK. Briefly: Western blot of ERK phosphorylation. The format is cell-based, human. The note with it: CL1-5, A549 and CL1-0/siCCN2; with increasing time; FIG. 3A. On the procedure:
as §1
This embodiment focuses on the effect of CCN2 on the EGFR-induced signaling pathways. At first, the effect of exogenous CCN2(rCCN2) on the MAPK/AKT signaling pathways in the lung adenocarcinoma cell lines, CL1-5, A549 and CL1-0/siCCN2 was observed by western blot analysis, the results shown in FIG. 3A.

Assay [6] has as its target T2, EGFR (Homo sapiens, UniProt P00533).
T2 construct: endogenous in cells; host or cells: CL1-5 and A549 human lung adenocarcinoma cell lines
Briefly: FACS of membranous association between CCN2 and EGFR. Type of assay: cell-based. The note with it: CL1-5 and A549; rCCN2 100 ng/mL; FIG. 2B. On the procedure: After washing, cells were stained with an FITC-labelled goat anti-rabbit secondary antibody (Santa Cruz Biotechnology) for 30 min in the dark. Analysis was then conducted with an FACS Calibur cytometer (Collaborative Biomedical, BD Biosciences).
In this embodiment, the concentration thereof is about 100 ng/mL.

For assay [7], the system named is lung adenocarcinoma cell line, CL1-5. Briefly: In vivo metastasis of i.v. injected CL1-5, celltracker probe. The note with it: nude mice, i.v. CL1-5; CCN2 1 mg/kg per day; FIG. 5G. From the text: Mice were anesthetized with isoflurane inhalation, and biofluorescence images were photographed with a CCD camera (IVIS; Xenogen Corporation, Caliper Life Sciences, Hopkinton, Mass., USA) at specific times. Imaging times ranged from 1 to 60 s, depending on the amount of fluorescence activity. Biofluorescence from the region of interest (ROI) was defined manually, and the data were expressed as photon flux (photons/s/cm^2/steradian). Background photon flux was defined using an ROI from a mouse that was not given an […]. injection of cancer cells. All biofluorescence data were collected and analyzed using IVIS. Celltracker dye was purchased from Molecular Probes, Invitrogen Corporation.
Cells were washed and resuspended in PBS. […] The mice were injected i.v. with cells so that we could measure the metastatic potential and perform biofluorescence imaging. The mice were killed after 8 weeks, and all of their organs were examined for metastasis formation. The lungs were removed and fixed in 10% formalin fixative. The number of lung-tumor colonies was counted under a dissecting microscope. […]

In assay [8] the test system is CL1-5 lung adenocarcinoma cell lines. The assay is described as follows: MTT Assay, cell survival of CL1-5, rCCN2 and cetuximab. Type of assay: cell-based, human. The note with it: attached CL1-5; rCCN2 alone 0 to 200 ng/mL; FIG. 8F.

Here are results for one molecule from patent US20210093714A1, “Combination and method for inhibiting the cancer cells” (NATIONAL TAIWAN UNIVERSITY, priority 2013, published 2021).

B1: Connective tissue growth factor (CCN2), wild-type full length (ligand, human, UniProt P29279 27-349, looked up)
chain: QNCSGPCRCPDEPAPRCPAGVSLVLDGCGCCRVCAKQLGELCTERDPCDPHKGLFCHFGSPANRKIGVCTAKDGAPCIFGGTVYRSGESFQSSCKYQCTCLDGAVGCMPLCSMDVRLPSPDCPFPRRVKLPGKCCEEWVCDEPKDQTVVGPALAAYRLEDTFGPDPTMIRANCLVQTTEWSACSKTCGMGISTRVTNDNASCRLEKQSRLCMVRPCEADLEENIKKGKKCIRTPKISKPIKFELSGCTSMKTYRAKFCGVCTDGRCCTPHRTTTLPVEFKCPDGEVMKKNMMFIKTCACHYNCPGDNDIFESLYYRKMYGDMA
notes: also called Recombinant CCN2; exogenous CCN2
On to B1, for which the “autophosphorylation of c-Src Y416” value in assay [1] is on record as “gradually inhibit the autophosphorylation of c-Src^Y416”. Further, in assay [2], the “rCCN2 induced DNA fragmentation” value is “decreased”. For the same molecule, the “formation of EGFR/c-Cbl complex” value in assay [3] is “gradually increase the formation of EGFR/c-Cbl complex”. Moreover, the DAPK expression result in assay [4] (CL1-5, A549 and CL1-0/siCCN2, increasing time 0 minutes to 12 hours, FIG. 6B) is “promote DAPK expression”; in assay [4] (CL1-5, increasing dose (0 μm, 1μg, 3 μg), FIG. 6C) it was “promote DAPK expression”. Further, the “phosphorylation of ERK (p-ERK1/2)” value in assay [5] was “gradually reduce the phosphorylation of ERK”. Further, the “detection of membranous CCN2” value in assay [6] is “enhanced the detection of membranous CCN2”. Besides, in assay [7], the “celltracker signals in lungs” value is reported as “much weaker”. In addition, the “number of metastatic lung nodules” value in assay [7] was “significantly reduced”. Further, the cell survival entry in assay [8] is recorded as “not significantly reduced”.
